Source: article PMC8835667

Biological target: tripartite motif containing 28 (TRIM28) (human (endogenous in HeLa)) (UniProt Q13263)
Sequence (Q13263 whole entry): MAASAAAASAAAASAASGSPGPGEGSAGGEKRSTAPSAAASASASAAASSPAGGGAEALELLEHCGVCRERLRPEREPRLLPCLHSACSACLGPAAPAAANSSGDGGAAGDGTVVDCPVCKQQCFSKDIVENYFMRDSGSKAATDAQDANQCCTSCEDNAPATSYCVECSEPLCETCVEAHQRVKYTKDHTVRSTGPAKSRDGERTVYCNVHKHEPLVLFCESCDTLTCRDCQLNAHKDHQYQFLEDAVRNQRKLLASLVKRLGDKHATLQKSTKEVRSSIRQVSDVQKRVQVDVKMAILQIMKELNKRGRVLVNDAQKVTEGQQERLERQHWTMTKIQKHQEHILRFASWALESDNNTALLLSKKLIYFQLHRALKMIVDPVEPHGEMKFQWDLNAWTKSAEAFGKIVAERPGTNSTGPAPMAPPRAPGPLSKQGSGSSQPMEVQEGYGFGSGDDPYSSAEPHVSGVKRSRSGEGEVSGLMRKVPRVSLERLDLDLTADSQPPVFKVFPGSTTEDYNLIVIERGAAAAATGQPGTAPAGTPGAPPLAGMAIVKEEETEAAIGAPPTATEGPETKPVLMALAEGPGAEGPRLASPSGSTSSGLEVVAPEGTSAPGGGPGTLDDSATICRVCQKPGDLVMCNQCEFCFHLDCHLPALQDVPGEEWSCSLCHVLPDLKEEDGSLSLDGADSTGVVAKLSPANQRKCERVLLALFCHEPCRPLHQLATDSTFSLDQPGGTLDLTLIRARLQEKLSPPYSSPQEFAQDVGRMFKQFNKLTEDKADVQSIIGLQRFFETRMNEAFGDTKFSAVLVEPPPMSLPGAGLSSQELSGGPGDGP

Question: “GST fusion of wild-type PRDM9 aKRAB-A with ZNF10-B (domain or fragment)” was tested. Which transcriptional repression factor over Gal4-DBD alone, dual luciferase reporter assay in HeLa cells (KRAB domain as Gal4-DBD fusion) did it give?
Answer: 0.9 fold
